Measurements as given in article PMC3660092.

Target: YFP-IP3R type 1 (UniProt P11881)
Assay: FRET or BRET

Chain of UniProt P11881 (P11881 whole entry): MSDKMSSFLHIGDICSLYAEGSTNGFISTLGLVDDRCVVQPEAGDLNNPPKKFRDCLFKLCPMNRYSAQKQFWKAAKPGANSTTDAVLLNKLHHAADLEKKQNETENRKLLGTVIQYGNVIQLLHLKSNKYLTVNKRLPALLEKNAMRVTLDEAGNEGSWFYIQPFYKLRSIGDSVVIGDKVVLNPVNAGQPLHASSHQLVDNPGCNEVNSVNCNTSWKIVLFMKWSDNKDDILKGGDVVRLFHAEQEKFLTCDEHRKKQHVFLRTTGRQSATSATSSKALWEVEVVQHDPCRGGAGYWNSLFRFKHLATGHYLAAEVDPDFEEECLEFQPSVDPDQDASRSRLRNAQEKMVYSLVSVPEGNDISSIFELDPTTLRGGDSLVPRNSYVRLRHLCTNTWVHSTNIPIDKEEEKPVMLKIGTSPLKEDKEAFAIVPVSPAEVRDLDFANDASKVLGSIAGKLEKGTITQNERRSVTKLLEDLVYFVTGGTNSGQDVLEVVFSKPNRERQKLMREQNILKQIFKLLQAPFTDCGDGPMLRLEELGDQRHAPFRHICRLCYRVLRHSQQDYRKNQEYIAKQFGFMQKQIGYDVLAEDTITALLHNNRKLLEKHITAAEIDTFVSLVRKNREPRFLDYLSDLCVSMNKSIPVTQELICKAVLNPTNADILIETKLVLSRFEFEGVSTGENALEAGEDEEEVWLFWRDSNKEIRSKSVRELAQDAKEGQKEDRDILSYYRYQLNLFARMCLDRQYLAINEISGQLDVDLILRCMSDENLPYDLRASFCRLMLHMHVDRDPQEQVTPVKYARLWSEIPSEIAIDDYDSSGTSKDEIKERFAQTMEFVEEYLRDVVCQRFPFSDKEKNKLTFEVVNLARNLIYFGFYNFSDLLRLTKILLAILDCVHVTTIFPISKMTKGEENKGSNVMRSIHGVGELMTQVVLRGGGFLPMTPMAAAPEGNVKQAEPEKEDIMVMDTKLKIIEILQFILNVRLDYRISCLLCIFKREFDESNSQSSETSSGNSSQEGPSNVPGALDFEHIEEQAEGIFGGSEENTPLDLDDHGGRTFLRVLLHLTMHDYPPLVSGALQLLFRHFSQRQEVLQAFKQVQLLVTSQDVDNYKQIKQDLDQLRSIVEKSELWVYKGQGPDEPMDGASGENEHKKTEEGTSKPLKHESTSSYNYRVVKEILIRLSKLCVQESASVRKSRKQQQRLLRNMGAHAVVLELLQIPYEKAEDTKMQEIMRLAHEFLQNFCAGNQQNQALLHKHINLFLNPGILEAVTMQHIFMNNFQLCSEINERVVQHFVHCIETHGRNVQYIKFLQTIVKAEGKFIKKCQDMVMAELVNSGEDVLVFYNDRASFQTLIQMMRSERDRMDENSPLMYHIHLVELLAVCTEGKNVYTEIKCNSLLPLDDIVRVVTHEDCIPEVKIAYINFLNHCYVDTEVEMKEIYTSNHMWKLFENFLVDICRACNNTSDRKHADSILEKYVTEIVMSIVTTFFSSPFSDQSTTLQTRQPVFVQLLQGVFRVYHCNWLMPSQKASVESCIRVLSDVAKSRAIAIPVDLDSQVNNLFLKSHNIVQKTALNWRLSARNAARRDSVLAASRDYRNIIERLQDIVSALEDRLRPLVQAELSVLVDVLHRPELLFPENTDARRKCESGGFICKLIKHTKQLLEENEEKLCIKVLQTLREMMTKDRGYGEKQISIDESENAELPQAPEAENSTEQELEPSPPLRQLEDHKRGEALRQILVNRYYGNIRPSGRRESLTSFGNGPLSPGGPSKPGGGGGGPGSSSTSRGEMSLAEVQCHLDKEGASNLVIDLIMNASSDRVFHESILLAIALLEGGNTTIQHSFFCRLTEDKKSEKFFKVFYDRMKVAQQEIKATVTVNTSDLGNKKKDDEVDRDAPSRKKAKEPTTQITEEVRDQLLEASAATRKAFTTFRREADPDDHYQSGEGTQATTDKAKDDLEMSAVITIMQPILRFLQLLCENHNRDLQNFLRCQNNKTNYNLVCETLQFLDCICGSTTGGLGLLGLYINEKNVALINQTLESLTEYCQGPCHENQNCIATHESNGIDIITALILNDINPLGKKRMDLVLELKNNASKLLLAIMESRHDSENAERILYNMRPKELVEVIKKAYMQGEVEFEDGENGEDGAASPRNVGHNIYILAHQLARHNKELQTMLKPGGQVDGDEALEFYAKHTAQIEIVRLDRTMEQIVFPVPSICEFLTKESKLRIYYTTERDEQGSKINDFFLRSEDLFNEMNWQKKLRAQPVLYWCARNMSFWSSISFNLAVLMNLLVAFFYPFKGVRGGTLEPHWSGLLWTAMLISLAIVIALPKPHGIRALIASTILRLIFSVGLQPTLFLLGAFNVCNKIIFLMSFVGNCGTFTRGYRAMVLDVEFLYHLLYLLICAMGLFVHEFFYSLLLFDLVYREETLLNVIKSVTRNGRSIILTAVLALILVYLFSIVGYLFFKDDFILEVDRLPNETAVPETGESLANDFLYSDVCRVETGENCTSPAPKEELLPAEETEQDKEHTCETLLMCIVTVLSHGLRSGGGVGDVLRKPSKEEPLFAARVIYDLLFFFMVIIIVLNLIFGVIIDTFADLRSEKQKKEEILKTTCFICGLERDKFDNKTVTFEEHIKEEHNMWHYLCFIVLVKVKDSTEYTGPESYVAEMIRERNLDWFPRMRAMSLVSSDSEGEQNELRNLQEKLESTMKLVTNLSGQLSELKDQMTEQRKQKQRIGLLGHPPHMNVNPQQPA

## CFP-Bcl-2 (from UniProt P10415 1-239) (natural protein)
  increase of the CFP signal after YFP bleaching (FRET efficiency): 28%
